Experimental data reported in paper PMC3287209 (Nucleic Acids Research, 2012).

Columns and labels:
crystal structure = molecular target: the molecule itself; assay: crystal structure
XLF wild-type = XLF wild-type (human, UniProt Q9H9Q4 1-299); assay: native gel or EMSA

| Binder | stoichiometry N (crystal structure) | binding result (XLF wild-type) |
| --- | --- | --- |
| XLF^1–224 (domain or fragment) MEELEQGLLMQPWAWLQLAENSLLAKVFITKQGYALLVSDLQQVWHEQVDTSVVSQRAKELNKRLTAPPAAFLCHLDNLLRPLLKDAAHPSEATFSCDCVADALILRVRSELSGLPFYWNFHCMLASPSLVSQHLIRPLMGMSLALQCQVRELATLLHMKDLEIQDYQESGATLIRDRLKTEPFEENSFLEQFMIEKLPEACSIGDGKPFVMNLQDLYMAVTTQ | 2 | – |
| XRCC4^1–157 (domain or fragment) MERKISRIHLVSEPSITHFLQVSWEKTLESGFVITLTDGHSAWTGTVSESEISQEADDMAMEKGKYVGELRKALLSGAGPADVYTFNFSKESCYFFFEKNLKDVSFRLGSFNLEKVENPAEVIRELICYCLDTIAENQAKNEHLQKENERLLRDWND | – | binds |
